± gives the half width of the 95% confidence interval.
Legend:
[1] = folding stability dG unfold from trypsin proteolysis; higher = more stable
Summary of the method: (§1)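 Digests were run with trypsin and chymotrypsin at 11 concentrations in threefold dilutions, plus a no-protease condition, on designed mini-proteins in a PA-tagged cDNA display construct. The mini-proteins were under 80 residues, had no cysteine, and were kept only when AlphaFold2 dimer inter-PAE was above 15. After sequencing, Bayesian fitting of the counts gave K50, from which unfolding free energy was derived against a sequence-predicted unfolded-state K50 and a shared folded-state K50, per protease or combined.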

[2] = folding stability dG unfold (combined trypsin and chymotrypsin); higher = more stable
Summary of the method: as §1

[3] = folding stability dG unfold from chymotrypsin proteolysis; higher = more stable
Summary of the method: as §1

Sequence	folding stability dG unfold [1] [kcal/mol]	folding stability dG unfold [2] [kcal/mol]	folding stability dG unfold [3] [kcal/mol]
SAGGMVEVTYDPETGTLTILLPSPSGTLGPEAVEAAARLIRELYPEAEVEVEPLPDNTVRLRVRFPGGSAGG [r13_291_TrMRF]	4.22 ± 0.093	4.96 ± 0.14	5.38 ± 0.23
SAGKWVTIEIPIYIPGNPSQLKDLVEEIANILAAHGMKINVDVEVYPVDDYYIVKITVTVRMPPGMPIISAG [r5_217_TrROS]	3.75 ± 0.17	3.41 ± 0.19	3.23 ± 0.1
SPKITIDVETNKNGRGYIRFKFNGREREIRIPSNMTPEGAKEKARDIANTLQKRYQENGRPLKIEEIEIYSA [r9_751_TrROS]	1.49 ± 0.089	1.36 ± 0.17	1.47 ± 0.13
SAGGEKVKRVLVRDKKTKEWREVEVKEAKVEPPPVITIKIELSEEEAKKLAELLRKLFPDAKVTVVKSAGGS [r8_437_TrROS_Hall]	4.15 ± 0.35	3.98 ± 0.31	3.82 ± 0.24
SAKFRVSISYDPPDGYLTIMFRYPNPNQPITPEEIEEIAREILEERGHKVKIDEIHHEGNYFMIKIKLPSAG [r14_556_TrROS]	2.51 ± 0.11	2.75 ± 0.2	2.54 ± 0.11
SAMPIPNKNVVIRAKRSPDGTWDLTITVDNEKLGSKKAKTEEELKALVEEIAKEIAEKLGPGNVTVVEESAG [r14_791_JUSTAS]	2.74 ± 0.28	2.69 ± 0.22	2.54 ± 0.15
SAGGSAGGDGLELKLTFTIPVTARSPLGGSYPVYLRLTLTYRLDDPRWELDLYALDPNGNWYPVSAGGSAGG [r6_393_TrMRF]	3.66 ± 0.18	4.84 ± 0.1	5.12 ± 0.092
SAGSITIPIDDPEEMKDQLKNIAENFGMSNQDAEQFKDQLKENIEIHRDGDRWYITIQPPPPPDPGQPPSAG [r5_717_TrROS]	0.51 ± 0.15	-0.121 ± 0.47	-0.145 ± 0.55
SAGGSAGGSAGGSMTVTLSREELLRLLGVPPGVPIPESVLAKIKSIETLPDGSVTVTIGSAGGSAGGSAGGS [r4_369_JUSTAS]	1.98 ± 0.027	2.74 ± 0.11	3.118 ± 0.027
SAGGSAGGSAGKMYKLTIEKDGKEIEIIVSEDELKEIAKKLGLPPNAKIKVEKVSPEELKSAGGSAGGSAGG [r17_395_TrROS_Hall]	2.21 ± 0.095	3.27 ± 0.17	3.8 ± 0.14
SAGGSAGGSAGVVLKEPKGGVPKTITEDPNHPGLYTTGSPDGTISTRPLEIKPEEEPVLLSAGGSAGGSAGG [r17_85_JUSTAS]	-1.01 ± 0.49	-0.739 ± 0.55	-0.542 ± 0.4
SAGGMLKIEVTVPAEYPEQAEEIAAEIRDLLEAGPYVKVLKVEIEPTEDTVRVTVVVEIEFDSPEELISAGG [r13_39_TrMRF]	1.36 ± 0.17	1.78 ± 0.21	2.1 ± 0.06
SAGGSAGGSAGVVVKKPGTDVVYEITEEPGSYKVTITDPKTGTTKEFTVSPEVSIESLLLSAGGSAGGSAGG [r11_772_JUSTAS]	1.22 ± 0.092	1.15 ± 0.14	0.757 ± 0.13
SAGGSAGGSPTYTIDVEKYPDGYYFLKIWMPGHNRKIEHPIPPDNPDKIDEITITPNGKIKIDSAGGSAGGS [r20_11_TrROS]	0.161 ± 0.13	0.263 ± 0.17	0.309 ± 0.24
SAMVVPVKVELEIRVPGTPEEALEIAEELAKAFESLGNVEVDLELIEKSEDGSYIIKLTVTNYLPPELFSAG [r14_413_TrMRF]	0.905 ± 0.1	1.53 ± 0.21	1.99 ± 0.11
SSMSMKTITIDATFTSEEEAKKYAEEIKKKIPPENIKNISISSTPELVTGDGTYKGEKIKVTITIEIVKKSA [r9_605_JUSTAS]	1.64 ± 0.17	1.71 ± 0.26	1.74 ± 0.2
SAGGSAAITFPSDKTATVLSEEYDPVKKTTTVKMKVGNKEVTATLSPDGTVTIKLPDGKEETYPVGSAGGSA [r15_111_JUSTAS]	1.18 ± 0.057	1.35 ± 0.099	1.41 ± 0.016
SAGGGSLSDIATVDTSSYTDPNNPASVTVTNVTIPDGSTVTVTYNPTTGTVTVTTATDGTTTTTTIPSSAGG [r13_960_JUSTAS]	1.89 ± 0.19	1.42 ± 0.15	0.917 ± 0.056
SAGGSAGGSAGGSMIVVPVTSNEVVDNLGGPVTVPAGTVIIIERTENSVKVEVLPPEKLSAGGSAGGSAGGS [r10_353_JUSTAS]	0.917 ± 0.048	0.643 ± 0.11	0.353 ± 0.019
SAETKAEVFRFGDVLVVVTEERVTTPDGSERPVYTVTLLVYDPSTGKWTPFSRPFSSKEDAAKALSSGVSAG [r14_500_TrMRF]	1.52 ± 0.07	1.98 ± 0.15	2.22 ± 0.083
SAGGSAGGSAGMIVLFPLEEKKFIIYDPETGKVEEIEGTPEEVLEYAKKKYPDKEVYLLPSAGGSAGGSAGG [r11_614_TrMRF]	3.25 ± 0.36	5.15 ± 0.49	5.19 ± 0.3

Source: the supplement of paper PMC12764529
